Test results: PMC7772773

Target: EGFP-RABL2B (UniProt Q9UNT1)
Assay: co-immunoprecipitation (IP anti-EGFP, Western blot anti-Myc), IP/input band quantitation
Conditions: lysates from HEK293T cells; Input is 2.5% of lysate used for IP; parent: 100

Sequence of EGFP-RABL2B (Q9UNT1 whole entry): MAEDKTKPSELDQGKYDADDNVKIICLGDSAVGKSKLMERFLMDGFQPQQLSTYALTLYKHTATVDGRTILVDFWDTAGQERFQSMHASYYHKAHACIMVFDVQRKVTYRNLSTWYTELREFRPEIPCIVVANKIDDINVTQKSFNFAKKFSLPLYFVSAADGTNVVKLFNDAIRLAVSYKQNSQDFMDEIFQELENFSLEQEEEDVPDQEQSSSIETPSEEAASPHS

- percent of parent: 29%
Substance: CD8α-(HTR6-IC3)-myc R216A; K217A; Q218A
